# B1: native alpha-satellite 171 bp DNA (dsDNA)
# DNA 1: CCGCTTTGAGGCCTTCGTTGGAAACGGGAATATGTTCACATAAAAACTAGACAGAAGCATTCTCAGAAACTTCTATGTGATGTTTGCATTCAACTCATAGAGTTGAACATTCCTTTTCATAGAGCAGTTTTGAAACACTCTTTTTGTAGTATCTGGAATTGGACATTTGGA
# DNA 2: TCCAAATGTCCAATTCCAGATACTACAAAAAGAGTGTTTCAAAACTGCTCTATGAAAAGGAATGTTCAACTCTATGAGTTGAATGCAAACATCACATAGAAGTTTCTGAGAATGCTTCTGTCTAGTTTTTATGTGAACATATTCCCGTTTCCAACGAAGGCCTCAAAGCGG
# Molecular target: CCAN (CENP-C, CENP-LN, CENP-HIKM, CENP-OPQUR, CENP-TWSX) (Homo sapiens, UniProt Q03188;Q8N0S6;Q96H22;Q9H3R5;Q92674;Q9BS16;Q9NSP4;Q9BU64;Q6IPU0;Q7L2Z9;Q71F23;Q13 …)
# Test: cryo-EM; mild cross-linking; 3.5 A; SEC on Superose 6 Increase or Agilent Bio SEC-5 1000A; buffer, salt, pH and temperature not given in the material
# Details: protein: recombinant; copies: 1;1;1;1;1;1;1;1;1;1;1;1;1;1;1;1
binder,measurement,value
B1,binding result,binds

# Reference: paper doi:10.1101/2025.11.04.686567, “Models for the architecture of the human inner kinetochore CCAN complex on centromeric α-satellite CENP-A nucleosome arrays”
